Measured values: patent US20250340659A1 (PETMEDIX, published 2025)
Residue numbers refer to the chain shown, from its start. Values belong to the binder of their own block, whether it stands above or below them.

Tests used:
[1] = molecular target: T1, canine OX40L, full length membrane form, expressed on HEK293 cells (canine); assay: flow cytometry, OX40L HEK minus WT HEK
T1 construct: also called OX40L expressing HEK; HEK OX40L cells
T1 chain: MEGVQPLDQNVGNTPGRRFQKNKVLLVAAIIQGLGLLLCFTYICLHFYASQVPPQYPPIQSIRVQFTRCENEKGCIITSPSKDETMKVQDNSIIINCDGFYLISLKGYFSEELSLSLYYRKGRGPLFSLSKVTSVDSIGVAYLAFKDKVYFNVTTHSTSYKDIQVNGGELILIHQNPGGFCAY
Procedure, shortened: (§1)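 CHO supernatants at 1, 5 or 10 μg/ml in PBS/3% FBS incubated 30′ on ice with cells surface-expressing canine OX40L. Bound antibody detected with fluorescent anti-canine Fc secondary (1:1000, 30 min, dark) and measured by flow cytometry, with parental WT HEK signal subtracted where stated.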

[2] = molecular target: T2, recombinant canine OX40L ECD-TNCc-HIS protein (canine); assay: SPR Koff (kd1)
T2 construct: also called Trimeric OX40L probe (HIS tag); trimeric canine OX40L
T2 chain: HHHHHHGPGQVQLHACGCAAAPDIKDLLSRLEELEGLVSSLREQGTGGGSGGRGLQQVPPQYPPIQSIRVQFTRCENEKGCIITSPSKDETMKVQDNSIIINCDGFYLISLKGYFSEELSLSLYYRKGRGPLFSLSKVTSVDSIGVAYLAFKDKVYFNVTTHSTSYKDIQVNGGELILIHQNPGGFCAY
Procedure, shortened: (§2)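 Purified antigen amine-coupled at low density to a CM5 chip; candidate antibodies injected as analyte over a concentration range. Kinetic curves fitted with a bivalent analyte model to give functional affinity and dissociation rates.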

[3] = molecular target: T2, recombinant canine OX40L ECD-TNCc-HIS …; assay: SPR KD1, bivalent analyte model
Procedure, shortened: as §2

[4] = molecular target: T2, recombinant canine OX40L ECD-TNCc-HIS …; assay: SPR Koff (kd2)
Procedure, shortened: as §2

[5] = molecular target: T1, canine OX40L, full length membrane …; assay: cell-based or functional assay
[6] = molecular target: T1, canine OX40L, full length membrane …; assay: flow cytometry
Procedure, shortened: as §1

GEO mean difference [1]: 1.44e+06 | koff [2]: 0.00484 s⁻¹ | Kd [3]: 0.0104 µM | koff [4]: 0.000554 s⁻¹ | % Signal Inhibition Average [5]: 75.9% | % Signal Inhibition Rep1 [5]: 79.9% | % Signal Inhibition Rep2 [5]: 81.7% | % Signal Inhibition Rep3 [5]: 66.2% | GEO mean OX40L expressing HEK [6]: 1.47e+06
B6: PMX045 (antibody, V domains shown)
VH: EVQLVESGGDLVKPGGSLRLSCVASGFTFSSYHMTWVRQAPGKGLQWVAYITSGGITTSYADAVKGRFTISRDNAKNTLYLQMSSLRAEDTAMYYCARDLVLLLGGADYWGQGTLVTVSS
VL: SYELTQPPSVNVTLRETAHITCGGDSIGRKYVQWIQQNPGQAPVVIIYKDSNRPTGIPERFSGANSGNTATLTISGALAEDEADYYCQVGDSGTKAVFGGGTHLTVL
notes: also called PMX45

GEO mean difference [1]: 781000 | koff [2]: 0.00384 s⁻¹ | Kd [3]: 0.0156 µM | koff [4]: 6.94 s⁻¹ | % Signal Inhibition Average [5]: 63.7% | % Signal Inhibition Rep1 [5]: 62.6% | % Signal Inhibition Rep2 [5]: 77.2% | % Signal Inhibition Rep3 [5]: 51.5% | GEO mean OX40L expressing HEK [6]: 789000
B8: PMX154 (antibody, V domains shown)
VH: EVQLVESGGDLVKPEGSLRLSCVVSGFTFSGFDMSWVRQAPGKGLQWVAYISTDGRSTGYTDAVKGRFTISRDNVKNTLYLQMNSLRTEDTAVYYCAKETRHWGFDYWGQGTLVIVSS
VL: SYVLTQLSSVSVSLRQTAHITCGGDSIGRKNVYWHQQKLGRAPILIIYDDSSRPSGIPERFSGANSGNTATLTISGALAEDEAAYYCQVWDSSTSVFGGGTHLTVL

GEO mean difference [1]: 1.06e+06 | koff [2]: 0.0294 s⁻¹ | Kd [3]: 0.0516 µM | koff [4]: 0.000779 s⁻¹ | % Signal Inhibition Average [5]: 69.4% | % Signal Inhibition Rep1 [5]: 75.8% | % Signal Inhibition Rep2 [5]: 76.2% | % Signal Inhibition Rep3 [5]: 56% | GEO mean OX40L expressing HEK [6]: 1.09e+06
B9: PMX029 (antibody, V domains shown)
VH: EVQLVESGGDLVKPGGSLRLSCVASGFTFSSYHMNWVRQAPGKGLQWVAYINTGGSRTSYADAVKGRFTISRDNAKNTLYLQMNSLRAEDTAVYYCANNYWDNFDSWGQGTLVTVSS
VL: SYELTQPPSVNVTLRETAHITCGGDSIGSKYVQWIQQNPGQAPVVIIYKDTNRPTGIPERFSGANSGNTATLTISGALAEDEADYYCQVGDSGTKASVFGGGTHLTVL
notes: also called PMX29

The next lines start with the binder.

B1: PMX060 (antibody, V domains shown)
VH: EVQLVESGGDLMKPGGSLRLSCVASGFTFSSFPMSWVRQAPGKGLQWVAYIHSGGSSTSYADAVKGRFTISRDNAKNTLYLQMNSLRAEDTAIYYCARTFPTVAADNWFYYWGQGTLVTVSS
VL: SYVLTQLPSKNVTLKQAAHITCGGDNIGSKSVHWYQQKLGQAPVLIIYYDSSRPTGIPERFSGANSGNTATLTISGALAEDEADYYCQVWDSSAKWVFGEGTQLTVL
notes: also called PMX60
GEO mean difference [1]: 3.07e+06 | koff [2]: 0.00933 s⁻¹ | Kd [3]: 0.0709 µM | koff [4]: 0.000925 s⁻¹ | % Signal Inhibition Average [5]: 66.1% | % Signal Inhibition Rep1 [5]: 58.9% | % Signal Inhibition Rep2 [5]: 68.4% | % Signal Inhibition Rep3 [5]: 71.1% | GEO mean OX40L expressing HEK [6]: 3.1e+06

B2: PMX061 (antibody, V domains shown)
VH: B1 VH with M12V, H52N, A63V, E89D, I93V, A105T
VL: B1 VL
notes: also called PMX61
GEO mean difference [1]: 3.26e+06 | koff [2]: 0.00746 s⁻¹ | Kd [3]: 0.0896 µM | koff [4]: 0.000729 s⁻¹ | % Signal Inhibition Average [5]: 56.1% | % Signal Inhibition Rep1 [5]: 51% | % Signal Inhibition Rep2 [5]: 61.6% | % Signal Inhibition Rep3 [5]: 55.7% | GEO mean OX40L expressing HEK [6]: 3.29e+06

B3: PMX065 (antibody, V domains shown)
VH: EVQLVESGGDLVKPGGSLRLSCVASGFTFNNYEMYWVRQAPGKGLEWVARIYESGSTTFSAEAVTGRFTISRDNAKNMVYLQMNSLRAEDTAVYYCASASSSSWRFDYWGQGTLVTVSS
VL: SYVLTQLPSVSVTLGQTARITCGGDSIGRKNVCWFQQRLGQAPELIIYDDRSRPSGIPERFSGANSGNTATLTISGALAEDEADYYCQVWDSSTGVFGGGTHLTVL
notes: also called PMX65
GEO mean difference [1]: 3.52e+06 | koff [2]: 0.0125 s⁻¹ | Kd [3]: 0.107 µM | koff [4]: 0.412 s⁻¹ | % Signal Inhibition Average [5]: 72.6% | % Signal Inhibition Rep1 [5]: 62.7% | % Signal Inhibition Rep2 [5]: 85.3% | % Signal Inhibition Rep3 [5]: 69.9% | GEO mean OX40L expressing HEK [6]: 3.55e+06

B4: PMX042 (antibody, V domains shown)
VH: B6 VH with T35S, I56S, S84D, E89D, M93V, R98S
VL: B6 VL with N38H, S51Y
notes: also called PMX42
GEO mean difference [1]: 1.48e+06 | koff [2]: 0.0292 s⁻¹ | Kd [3]: 0.274 µM | koff [4]: 0.00056 s⁻¹ | % Signal Inhibition Average [5]: 78.8% | % Signal Inhibition Rep1 [5]: 77.8% | % Signal Inhibition Rep2 [5]: 87.5% | % Signal Inhibition Rep3 [5]: 71% | GEO mean OX40L expressing HEK [6]: 1.51e+06

B5: PMX064 (antibody, V domains shown)
VH: B6 VH with T35S, S84N, M93V, R98S, L103I
VL: B6 VL with R15S
notes: also called PMX64
GEO mean difference [1]: 3.42e+06 | koff [2]: 0.0352 s⁻¹ | Kd [3]: 0.145 µM | koff [4]: 0.000921 s⁻¹ | % Signal Inhibition Average [5]: 91.1% | % Signal Inhibition Rep1 [5]: 88.9% | % Signal Inhibition Rep2 [5]: 94.8% | % Signal Inhibition Rep3 [5]: 89.7% | GEO mean OX40L expressing HEK [6]: 3.45e+06

B7: PMX063 (antibody, V domains shown)
VH: EVQLVESGGDLVRPGGSLRLSCVASGFTFNNYHMSWVRQAPGKGLQWVAFINSGGSGTTFADVVRGRFTISRDYAKNALYLQMNSLRAEDTAVYYCASGSIWTHFDYWGQGTLVTVSS
VL: SFVLTQLPSVSVTLRQTARITCGGDIIGSKNVYWYQQRLGQAPVLIIYRDNNRPTGIPERFSGASSGNTATLTISGALAEDEADYYCQVWDNSNKAMFGGGTHLTVL
notes: also called PMX63
GEO mean difference [1]: 3.15e+06 | koff [2]: 9.05e-05 s⁻¹ | Kd [3]: 0.000271 µM | koff [4]: 5.21 s⁻¹ | % Signal Inhibition Average [5]: 74.4% | % Signal Inhibition Rep1 [5]: 68.3% | % Signal Inhibition Rep2 [5]: 83% | % Signal Inhibition Rep3 [5]: 72% | GEO mean OX40L expressing HEK [6]: 3.18e+06

B10: PMX155 (antibody, V domains shown)
VH: ELHLVESGGDLVKPAGSLRLSCVASGFTFSSFRMSWVRQSPGKGLQFVAGINSDGYNTQYRDDVKGRFTISRDNTEKTLYLQMNNLRVEDTAMYYCVKDQGSWGGNFDFWGQGTLVTVSS
VL: SYGLTQPPSVNVTLRETAHITCGGDSIGSKYVQWIQQIPGQAPVVIIYKDRNRPTGIPERFSGANSGNTATLTISGALAEDEADYYCQVGDSGTSVFGGGTHLTVL
GEO mean difference [1]: 730000 | koff [2]: 0.032 s⁻¹ | Kd [3]: 0.0906 µM | koff [4]: 0.000294 s⁻¹ | % Signal Inhibition Average [5]: 32.7% | % Signal Inhibition Rep1 [5]: 19.9% | % Signal Inhibition Rep2 [5]: 37.4% | % Signal Inhibition Rep3 [5]: 40.9% | GEO mean OX40L expressing HEK [6]: 738000

B11: PMX156 (antibody, V domains shown)
VH: B10 VH with H3Q, S31N, S40A, N57S, F109Y
VL: B10 VL
GEO mean difference [1]: 672000 | koff [2]: 0.102 s⁻¹ | Kd [3]: 1.98 µM | koff [4]: 0.000238 s⁻¹ | % Signal Inhibition Average [5]: 35.1% | % Signal Inhibition Rep1 [5]: 21.6% | % Signal Inhibition Rep2 [5]: 34.5% | % Signal Inhibition Rep3 [5]: 49.1% | GEO mean OX40L expressing HEK [6]: 680000
